Positions count from the first letter of the chain named. Names and notes keep the numbering of the source.
B1: wild-type S. cerevisiae Mlh1-Pms1 (complex)
chain 1: MSLRIKALDASVVNKIAAGEIIISPVNALKEMMENSIDANATMIDILVKEGGIKVLQITDNGSGINKADLPILCERFTTSKLQKFEDLSQIQTYGFRGEALASISHVARVTVTTKVKEDRCAWRVSYAEGKMLESPKPVAGKDGTTILVEDLFFNIPSRLRALRSHNDEYSKILDVVGRYAIHSKDIGFSCKKFGDSNYSLSVKPSYTVQDRIRTVFNKSVASNLITFHISKVEDLNLESVDGKVCNLNFISKKSISPIFFINNRLVTCDLLRRALNSVYSNYLPKGNRPFIYLGIVIDPAAVDVNVHPTKREVRFLSQDEIIEKIANQLHAELSAIDTSRTFKASSISTNKPESLIPFNDTIESDRNRKSLRQAQVVENSYTTANSQLRKAKRQENKLVRIDASQAKITSFLSSSQQFNFEGSSTKRQLSEPKVTNVSHSQEAEKLTLNESEQPRDANTINDNDLKDQPKKKQKLGDYKVPSIADDEKNALPISKDGYIRVPKERVNVNLTSIKKLREKVDDSIHRELTDIFANLNYVGVVDEERRLAAIQHDLKLFLIDYGSVCYELFYQIGLTDFANFGKINLQSTNVSDDIVLYNLLSEFDELNDDASKEKIISKIWDMSSMLNEYYSIELVNDGLDNDLKSVKLKSLPLLLKGYIPSLVKLPFFIYRLGKEVDWEDEQECLDGILREIALLYIPDMVPKVDTSDASLSEDEKAQFINRKEHISSLLEHVLFPCIKRRFLAPRHILKDVVEIANLPDLYKVFERC
chain 2: MTQIHQINDIDVHRITSGQVITDLTTAVKELVDNSIDANANQIEIIFKDYGLESIECSDNGDGIDPSNYEFLALKHYTSKIAKFQDVAKVQTLGFRGEALSSLCGIAKLSVITTTSPPKADKLEYDMVGHITSKTTTSRNKGTTVLVSQLFHNLPVRQKEFSKTFKRQFTKCLTVIQGYAIINAAIKFSVWNITPKGKKNLILSTMRNSSMRKNISSVFGAGGMRGLEEVDLVLDLNPFKNRMLGKYTDDPDFLDLDYKIRVKGYISQNSFGCGRNSKDRQFIYVNKRPVEYSTLLKCCNEVYKTFNNVQFPAVFLNLELPMSLIDVNVTPDKRVILLHNERAVIDIFKTTLSDYYNRQELALPKRMCSQSEQQAQKRLKTEVFDDRSTTHESDNENYHTARSESNQSNHAHFNSTTGVIDKSNGTELTSVMDGNYTNVTDVIGSECEVSVDSSVVLDEGNSSTPTKKLPSIKTDSQNLSDLNLNNFSNPEFQNITSPDKARSLEKVVEEPVYFDIDGEKFQEKAVLSQADGLVFVDNECHEHTNDCCHQERRGSTDTEQDDEADSIYAEIEPVEINVRTPLKNSRKSISKDNYRSLSDGLTHRKFEDEILEYNLSTKNFKEISKNGKQMSSIISKRKSEAQENIIKNKDELEDFEQGEKYLTLTVSKNDFKKMEVVGQFNLGFIIVTRKVDNKYDLFIVDQHASDEKYNFETLQAVTVFKSQKLIIPQPVELSVIDELVVLDNLPVFEKNGFKLKIDEEEEFGSRVKLLSLPTSKQTLFDLGDFNELIHLIKEDGGLRRDNIRCSKIRSMFAMRACRSSIMIGKPLNKKTMTRVVHNLSELDKPWNCPHGRPTMRHLMELRDWSSFSKDYEI
B2: Mlh1-K54C-Pms1 mutant complex (complex, S. cerevisiae)
chain 1: B1 chain 1 with K54C
chain 2: B1 chain 2

Molecular target: S. cerevisiae Msh2-Msh6 (S. cerevisiae, UniProt P25847 1-964; Q03834 1-1242)
Assay: SPR

Sequence of S. cerevisiae Msh2-Msh6 (P25847 whole entry, chain 1 of 2): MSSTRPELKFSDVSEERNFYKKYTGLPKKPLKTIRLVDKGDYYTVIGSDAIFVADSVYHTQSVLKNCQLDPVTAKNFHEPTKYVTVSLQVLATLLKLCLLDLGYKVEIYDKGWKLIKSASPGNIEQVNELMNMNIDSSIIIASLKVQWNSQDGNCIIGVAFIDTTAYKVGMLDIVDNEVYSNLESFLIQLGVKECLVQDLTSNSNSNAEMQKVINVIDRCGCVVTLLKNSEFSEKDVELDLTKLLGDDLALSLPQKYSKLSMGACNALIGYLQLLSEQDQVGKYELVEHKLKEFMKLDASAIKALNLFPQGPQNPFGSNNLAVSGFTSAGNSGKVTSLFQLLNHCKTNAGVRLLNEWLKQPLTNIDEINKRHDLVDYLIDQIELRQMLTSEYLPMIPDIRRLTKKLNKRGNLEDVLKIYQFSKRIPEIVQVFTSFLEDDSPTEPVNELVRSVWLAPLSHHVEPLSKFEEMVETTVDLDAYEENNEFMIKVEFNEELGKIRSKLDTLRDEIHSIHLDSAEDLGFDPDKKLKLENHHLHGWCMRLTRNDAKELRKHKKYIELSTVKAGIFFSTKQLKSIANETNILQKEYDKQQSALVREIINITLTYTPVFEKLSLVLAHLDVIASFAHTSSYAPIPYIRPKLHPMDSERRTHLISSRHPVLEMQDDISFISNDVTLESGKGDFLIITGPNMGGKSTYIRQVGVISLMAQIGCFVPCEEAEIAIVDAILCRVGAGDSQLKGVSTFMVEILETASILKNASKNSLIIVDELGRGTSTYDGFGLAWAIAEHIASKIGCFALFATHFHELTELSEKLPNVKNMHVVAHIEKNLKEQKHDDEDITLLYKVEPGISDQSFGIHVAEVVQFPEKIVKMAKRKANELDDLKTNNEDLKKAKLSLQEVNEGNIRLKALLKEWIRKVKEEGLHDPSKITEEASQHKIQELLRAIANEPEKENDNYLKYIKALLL
Sequence of S. cerevisiae Msh2-Msh6 (Q03834 whole entry, chain 2 of 2): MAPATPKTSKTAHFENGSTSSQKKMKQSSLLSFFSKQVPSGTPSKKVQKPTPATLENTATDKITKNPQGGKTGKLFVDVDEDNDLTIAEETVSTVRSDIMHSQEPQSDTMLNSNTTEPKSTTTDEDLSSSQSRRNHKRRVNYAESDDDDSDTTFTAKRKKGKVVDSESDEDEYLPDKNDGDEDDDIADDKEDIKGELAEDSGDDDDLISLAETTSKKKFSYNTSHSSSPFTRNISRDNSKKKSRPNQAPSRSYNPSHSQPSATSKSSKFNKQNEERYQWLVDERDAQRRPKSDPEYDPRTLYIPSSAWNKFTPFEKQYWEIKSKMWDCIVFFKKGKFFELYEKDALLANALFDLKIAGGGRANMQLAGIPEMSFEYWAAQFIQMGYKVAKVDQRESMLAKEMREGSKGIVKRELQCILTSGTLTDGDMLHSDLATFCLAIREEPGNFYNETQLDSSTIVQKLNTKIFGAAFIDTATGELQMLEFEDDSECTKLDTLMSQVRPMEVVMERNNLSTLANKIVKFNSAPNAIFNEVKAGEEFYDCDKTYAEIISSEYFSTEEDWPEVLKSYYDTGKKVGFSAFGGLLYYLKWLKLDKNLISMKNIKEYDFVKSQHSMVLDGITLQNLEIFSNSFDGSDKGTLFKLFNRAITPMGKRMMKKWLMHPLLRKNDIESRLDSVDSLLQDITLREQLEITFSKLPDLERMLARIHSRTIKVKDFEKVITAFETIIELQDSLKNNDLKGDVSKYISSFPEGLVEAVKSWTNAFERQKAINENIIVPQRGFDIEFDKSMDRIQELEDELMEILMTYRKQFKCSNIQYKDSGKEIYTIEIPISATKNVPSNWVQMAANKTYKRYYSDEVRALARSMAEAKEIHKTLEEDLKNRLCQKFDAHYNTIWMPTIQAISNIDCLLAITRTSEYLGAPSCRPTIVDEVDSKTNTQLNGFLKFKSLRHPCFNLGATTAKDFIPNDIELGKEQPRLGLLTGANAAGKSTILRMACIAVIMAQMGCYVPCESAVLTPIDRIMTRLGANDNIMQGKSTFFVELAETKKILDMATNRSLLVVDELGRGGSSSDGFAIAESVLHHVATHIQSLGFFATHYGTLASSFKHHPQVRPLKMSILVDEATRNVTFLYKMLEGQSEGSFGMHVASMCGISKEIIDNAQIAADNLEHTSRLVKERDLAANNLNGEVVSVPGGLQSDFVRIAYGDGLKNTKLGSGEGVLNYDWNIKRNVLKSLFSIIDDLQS

| Binder | binding result |
| --- | --- |
| B1 | binds |
| B2 | binds |
